Measurements as given in patent US20150344570A1 (published 2015).

T1: FcγRIIa H (FcγRIIa type H, His at position 131), extracellular domain with C-terminal His tag (human, UniProt P12318 34-217)
T1 construct: extracellular domain; expressed in FreeStyle293 cells; also called FcgRIIa H; 2aH; not shown: His tag attached to the C terminus
T1 sequence (looked up): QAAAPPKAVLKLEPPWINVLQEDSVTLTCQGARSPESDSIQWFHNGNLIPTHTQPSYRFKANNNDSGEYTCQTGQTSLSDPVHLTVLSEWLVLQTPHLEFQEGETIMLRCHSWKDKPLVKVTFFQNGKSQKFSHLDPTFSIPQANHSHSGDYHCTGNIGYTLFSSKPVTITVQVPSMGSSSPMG

T2: FcγRIIb, extracellular domain with C-terminal His tag (human, UniProt P31994 43-217)
T2 construct: extracellular domain; expressed in FreeStyle293 cells; also called FcgRIIb; 2b; not shown: His tag attached to the C terminus
T2 sequence (looked up): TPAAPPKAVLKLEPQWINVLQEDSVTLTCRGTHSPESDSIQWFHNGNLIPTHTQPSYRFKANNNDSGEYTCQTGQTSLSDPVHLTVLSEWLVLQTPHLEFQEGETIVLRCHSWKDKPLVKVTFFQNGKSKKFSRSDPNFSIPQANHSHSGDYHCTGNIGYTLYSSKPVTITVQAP

B1: GpH7-A5/GpH7-B3 variant P238_20W/GpL16-k0 (antibody, human IgG1, kappa)
heavy 1: not shown
heavy 2: not shown
light: DIVMTQSPLSLPVTPGEPASISCQASESLVHSNRNTYLHWYLQKPGQSPQLLIYKVSNRFSGVPDRFSGSGSGTDFTLKISRVEAEDVGVYYCSQNTHVPPTFGQGTKVEIERTVAAPSVFIFPPSDEQLKSGTASVVCLLNNFYPREAKVQWKVDNALQSGNSQESVTEQDSKDSTYSLSSTLTLSKADYEKHKVYACEVTHQGLSSPVTKSFNRGEC
notes: Heterodimerized antibody (He Ab): mutation in the GpH7-B3 chain only; also called He Ab
B2: GpH7-A5/GpH7-B3 variant V266_01G/GpL16-k0 (antibody, human IgG1, kappa)
heavy 1: not shown
heavy 2: not shown
light: B1 light
notes: as for B1
B3: GpH7-A5/GpH7-B3 variant S239_10E/GpL16-k0 (antibody, human IgG1, kappa)
heavy 1: not shown
heavy 2: not shown
light: B1 light
notes: as for B1
B4: GpH7-A5/GpH7-B3 variant S239_20W/GpL16-k0 (antibody, human IgG1, kappa)
heavy 1: not shown
heavy 2: not shown
light: B1 light
notes: as for B1
B5: GpH7-A5/GpH7-B3 variant V266_08L/GpL16-k0 (antibody, human IgG1, kappa)
heavy 1: not shown
heavy 2: not shown
light: B1 light
notes: as for B1
B6: GpH7-A5/GpH7-B3 variant V266_06M/GpL16-k0 (antibody, human IgG1, kappa)
heavy 1: not shown
heavy 2: not shown
light: B1 light
notes: as for B1
B7: GpH7-A5/GpH7-B3 variant V266_10E/GpL16-k0 (antibody, human IgG1, kappa)
heavy 1: not shown
heavy 2: not shown
light: B1 light
notes: as for B1
B8: GpH7-A5/GpH7-B3 variant S239_05P/GpL16-k0 (antibody, human IgG1, kappa)
heavy 1: not shown
heavy 2: not shown
light: B1 light
notes: as for B1
B9: GpH7-A5/GpH7-B3 variant S239_09D/GpL16-k0 (antibody, human IgG1, kappa)
heavy 1: not shown
heavy 2: not shown
light: B1 light
notes: as for B1
B10: GpH7-A5/GpH7-B3 variant V266_09D/GpL16-k0 (antibody, human IgG1, kappa)
heavy 1: not shown
heavy 2: not shown
light: B1 light
notes: as for B1
B11: GpH7-A5/GpH7-B3 variant V266_13S/GpL16-k0 (antibody, human IgG1, kappa)
heavy 1: not shown
heavy 2: not shown
light: B1 light
notes: as for B1
B12: GpH7-A5/GpH7-B3 variant S239_01G/GpL16-k0 (antibody, human IgG1, kappa)
heavy 1: not shown
heavy 2: not shown
light: B1 light
notes: as for B1
B13: GpH7-A5/GpH7-B3 variant V266_14T/GpL16-k0 (antibody, human IgG1, kappa)
heavy 1: not shown
heavy 2: not shown
light: B1 light
notes: as for B1
B14: GpH7-A5/GpH7-B3 variant V266_12R/GpL16-k0 (antibody, human IgG1, kappa)
heavy 1: not shown
heavy 2: not shown
light: B1 light
notes: as for B1
B15: GpH7-A5/GpH7-B3 variant V266_15Y/GpL16-k0 (antibody, human IgG1, kappa)
heavy 1: not shown
heavy 2: not shown
light: B1 light
notes: as for B1
B16: GpH7-A5/GpH7-B3 variant S239_08L/GpL16-k0 (antibody, human IgG1, kappa)
heavy 1: not shown
heavy 2: not shown
light: B1 light
notes: as for B1
B17: GpH7-A5/GpH7-B3 variant S239_18N/GpL16-k0 (antibody, human IgG1, kappa)
heavy 1: not shown
heavy 2: not shown
light: B1 light
notes: as for B1

Biological target: T1, FcγRIIa H (FcγRIIa type H, His at …)
Experiment: SPR (Biacore), antibody captured on antigen peptide chip, FcγR as analyte; relative to GpH7-A5/GpH7-B3/GpL16-k0 = 100

Row | He/Con_2aH (relative binding activity) | Binder
1 | 59.5 % of HeCon Ab (= 100) | B1
2 | 36.7 % of HeCon Ab (= 100) | B2
3 | 112 % of HeCon Ab (= 100) | B3
4 | 35.2 % of HeCon Ab (= 100) | B4
5 | 104 % of HeCon Ab (= 100) | B5
6 | 83.9 % of HeCon Ab (= 100) | B6
7 | 10.1 % of HeCon Ab (= 100) | B7
8 | 33.3 % of HeCon Ab (= 100) | B8
9 | 114 % of HeCon Ab (= 100) | B9
10 | 6.4 % of HeCon Ab (= 100) | B10
11 | 27 % of HeCon Ab (= 100) | B11
12 | 97 % of HeCon Ab (= 100) | B12
13 | 43.3 % of HeCon Ab (= 100) | B13
14 | 1.1 % of HeCon Ab (= 100) | B14
15 | 18.1 % of HeCon Ab (= 100) | B15
16 | 105 % of HeCon Ab (= 100) | B16
17 | 94.2 % of HeCon Ab (= 100) | B17

Biological target: T2, FcγRIIb, extracellular domain with …
Experiment: as above

Row | He/Con_2b (relative binding activity) | Binder
18 | 123 % of HeCon Ab (= 100) | B1
19 | 51.5 % of HeCon Ab (= 100) | B2
20 | 181 % of HeCon Ab (= 100) | B3
21 | 45.1 % of HeCon Ab (= 100) | B4
22 | 236 % of HeCon Ab (= 100) | B5
23 | 251 % of HeCon Ab (= 100) | B6
24 | 15.2 % of HeCon Ab (= 100) | B7
25 | 102 % of HeCon Ab (= 100) | B8
26 | 206 % of HeCon Ab (= 100) | B9
27 | 10.1 % of HeCon Ab (= 100) | B10
28 | 54.4 % of HeCon Ab (= 100) | B11
29 | 144 % of HeCon Ab (= 100) | B12
30 | 82.3 % of HeCon Ab (= 100) | B13
31 | -1.1 % of HeCon Ab (= 100) | B14
32 | 49.4 % of HeCon Ab (= 100) | B15
33 | 140 % of HeCon Ab (= 100) | B16
34 | 119 % of HeCon Ab (= 100) | B17

Biological target: T1, FcγRIIa H (FcγRIIa type H, His at …)
Experiment: SPR (Biacore); He/Con_2aH divided by He/Con_2b (FcγRIIa H against FcγRIIb)

Row | He_2aH/2b (IIaH/IIb) | Binder
35 | 0.49 ratio | B1
36 | 0.71 ratio | B2
37 | 0.62 ratio | B3
38 | 0.78 ratio | B4
39 | 0.44 ratio | B5
40 | 0.33 ratio | B6
41 | 0.66 ratio | B7
42 | 0.33 ratio | B8
43 | 0.56 ratio | B9
44 | 0.63 ratio | B10
45 | 0.5 ratio | B11
46 | 0.67 ratio | B12
47 | 0.53 ratio | B13
48 | -1.05 ratio | B14
49 | 0.37 ratio | B15
50 | 0.75 ratio | B16
51 | 0.79 ratio | B17
